Experimental findings from US12723255B2, “Herbicide tolerance genes and methods of use thereof” (priority 2014, dated 2026) are described below.

Data set [1] deals with transgenic soybean plants. The experiment in a line: R0 soybean 2,4-D spray test of 2,4-D optimized variants. The data set is classed as in vivo. The conditions noted are these: for tolerance to 2,4-D treatment: 2× application rate, soy. The text has this: An additional five engineered proteins optimized for activity for 2,4-D were then selected for analysis in transgenic soybean. DNA constructs were produced for expressing MON-HT13 (SEQ ID NO:47), MON-HT14 (SEQ ID NO:48), MON-HT15 (SEQ ID NO:49), MON-HT17 (SEQ ID NO:51), and MON-HT18 (SEQ ID NO:52) with codon usage optimized for dicot expression. The operably linked expression elements (promoter, leader, intron, CTP, and 3′UTR) were identical in all of the constructs. Leaf samples were taken from R0 plantlets and single copy plants were identified using a PCR-based assay. When the single-copy R0 plants had approximately two to three trifoliate leaves, they were treated with either 1.5 lb ae/acre (2×) or 3.0 lb ae/acre (4×) of 2,4-D. Seven days after herbicide application, the plants were scored for herbicide injury based on the percent area of the plant showing injury, as indicated above.

Data set [2] in a line: high-throughput enzyme assay with crude bacterial extract. It counts as biochemical. The note with it: relative to wild-type RdpA; for Average quizalofop-P activity: average of replicates. As to the method: The high-throughput bacterial protein expression was achieved by synthesizing a recombinant DNA molecule encoding each engineered protein and cloning this into a bacterial expression vector with a C-terminal histidine tag (His-tag) operably linked to the recombinant DNA molecule. The vectors were used to transform Escherichia coli (E. coli), and bacterial expression of the engineered proteins was induced. Overnight E. coli cultures were grown in 96-well plates and the cultures were centrifuged to pellet the bacteria. The bacterial pellets were lysed by adding 100 ul lysis master mix (10 ml of Bacteria Protein Extraction Reagent (B-PER®) II (Pierce Biotechnology, Rockford, IL; cat. no. 78260); 10 ul Lysozyme (10 ug/ml final; Lysozyme American Bioanalytical, Natick, MA; cat. no. AB011780-00005); and 40 ul Benzonase® Nuclease (100 Units/ml final, Novagen, Darmstadt, Germany; cat no 71206-3)) to each well. The plates were vortexed then incubated for 30 minutes at 4° C. 400 ul of MOPS buffer (pH 6.57) was added to cach well and the debris pelleted by centrifugation. The lysate supernatant was carefully removed and used as the crude bacterial extract for subsequent enzymatic analysis.
(§1) The high-throughput herbicide degradation enzyme assay was designed to assay the enzymatic activity of the engineered proteins towards various herbicides using crude bacterial extract. The engineered protein's oxygenase activity (that is, its enzymatic activity) was measured by an end point colorimetric assay utilizing detection of phenol products through measurement of absorbance at 510 nm from 4-aminoantipyrine and potassium ferricyanide. This assay was based on the assay described in Fukomori and Hausinger, Journal of Biological Chemistry (1993) 268(32):24311-24317. Enzyme reactions were assayed in 96-well plates in a total volume of 150ul that contained: 20 mM MOPS pH 6.75, 50-200 uM NH4FeSO4, 50-200 uM sodium ascorbate, 1 mM alpha-ketoglutarate (aKG), 10 ul of E. coli cell lysate containing expressed engineered protein, and substrate (either an AOPP herbicide or phenoxy acid herbicide). […] Absorbance measurements were made on a standard laboratory spectrometer. Assays were scaled as needed to enhance throughput. Standard curves were generated using purified protein or product standards.
Using this high-throughput bacterial protein expression and enzyme assay system, activities of approximately 1200 engineered proteins were measured relative to the activity of a selected wild-type protein, RdpA. In a 96 well plate assay, there were 3 controls (crude bacterial extract without an engineered protein) and 3 positive controls (crude bacterial extract with wild-type protein). The absorbance of the wells was measured and the protein activity was calculated using the following formula:
[formula] where, Activityi is the activity of the sample, Absorbancei is the absorbance of the sample, AbsorbanceWT is the absorbance of the wells containing extract from E. coli expressing the wild-type enzyme, and AbsorbancepET is the absorbance of the wells containing extract from E. coli without an engineered protein. Activity for each unique engineered protein was measured in duplicate and was reported as an average of the two measurements.
Using the information learned from the first assays, protein engineering was then done as described previously to produce additional engineered proteins, which were tested as described in this Example 1. The results of the high-throughput enzyme assay with quizalofop-P as the substrate for five of these additional engineered proteins are provided in Table 2.

The nature of data set [3]: enzyme kinetic measurements with purified protein. The note with it: for Km: 0-1280 uM substrate; for Vmax Fenoxaprop / Vmax Fluazifop / Vmax Haloxyfop / Vmax Quizalofop-P: relative values. The data set is classed as biochemical. As to the method:
as §1
Further protein characterization, such as Km, Vmax, and crystal structure analysis, was performed using the five engineered proteins from Table 2. For this detailed analysis, purified protein was prepared as follows: 2 ml overnight cultures of E. coli expressing a transgene encoding a given MON-HT protein were used to inoculate 500 ml of broth and grown at 37° C. for 4 hours followed by culture at 15° C. for approximately 36 hours. Then 250 ml of the 500 ml bacterial culture was pelleted by centrifugation and resuspended in 25 ml of extraction buffer (20 mM Tris, pH 7.8, 300 mM NaCl, 5 mM beta-mercaptoethanol (BME), 20 mM imidazole (Fluka/Sigma-Aldrich, St. Louis, MO), 125 units/ml of benzonase and 10K units/ml of lysozyme (Novagen, Darmstadt, Germany). The cell slurry was passed through a cell disruptor once at 20000 psi and then this cell lysate was clarified by centrifugation at 35,000×g for 20 min at 4° C. The supernatant containing the soluble His-tagged proteins was used for protein purification. For this purification, the supernatant was applied to a 1 ml HisTrap™ FF column (Nickel Sepharose) (GE Healthcare, Piscataway, NJ) using an AKTaxpress™ system (GE Healthcare, Piscataway, NJ) following the standard manufacturer's protocol. The wash buffer consisted of: 20 mM Tris pH 7.8, 300 mM NaCl, 20 mM imidazole and 5 mM BME. The composition of elution buffer was the same as the wash buffer except with 500 mM imidazole. The eluate from the nickel column was desalted on a Quick Spin Protein Sephadex G-25 fine column (Roche Applied Science, Indianapolis, IN) following the manufacturer's protocol. The eluted protein was in buffer consisting of: 20 mM Tris pH 7.8, 50 mM NaCl and 5 mM BME. Protein extract purity was assessed by SDS-PAGE analysis. Protein concentration was determined by Bradford assay using Bio-Rad Protein Assay dye reagent (Biorad, Hercules, CA, cat no 500-0006).
Purified protein for the five engineered proteins was analyzed using the enzyme assay described in this Example 1, but with four different AOPP herbicides as substrates: quizalofop-P, haloxyfop, fenoxaprop, and fluazifop. Standard curves were generated using 2,4-dichlorophenol (2,4-DCP), which was used to produce a general phenol standard curve. The amount of phenol generated in the assay by the engineered proteins was calculated based on this standard curve. The controls were purified wild-type enzyme, no enzyme, and no substrate. Enzyme kinetic measurements of the five engineered proteins was done using 0, 20, 40, 80, 160, 320, 640, or 1280 uM of quizalofop-P, haloxyfop, fenoxaprop, or fluazifop herbicides.

Where [4] appears, read: 2,4-D rate 2X (1.5 lb ae/acre), single copy R0 soy, seven days after application.

Changes are numbered by the printed parent chain. Where two headings read alike, the source gives them in different places.

B1: MON-HT14: engineered oxygenase protein, amino acid sequence SEQ ID NO:48 (protein)
chain: MHAALTPLTNKYRHIDVQPLTGVLGAEITGVDLREPLDDSTWNEILDAFHTYQVIYFPGQAITNEQHIAFSRRFGPVDPVPILKSIEGYPEVQMIRREANESSRYIGDDWHADSTFLDAPPAAVVMRAIEVPEYGGDTGFLSMYSAWETLSPTMQATIEGLNVVHSATKVFGSLYQATNWRFSGTSVKVMDVDAGDRETVHPLVVTHPVTGRRALYCNQVYCQKIQGMTDAESKSLLQFLYEHATQFDFTCRVRWKKDQVLVWDNLCTMHRAVPDYAGKFRYLTRTTVAGDKPSR
With B1, the “Events with <20% injury” value in data set [1] (setting [4]) worked out at 9. Moreover, in data set [1], the “tolerance to 2,4-D treatment” value is given as “excellent tolerance”.

B2: MON-HT18: engineered oxygenase protein, amino acid sequence SEQ ID NO:52 (protein)
chain: B1 chain with G184N
B2: in data set [1] (setting [4]), the “Events with 20-50% injury” value stood at 1 and the “Events with <20% injury” value is 11. Moreover, in data set [1], the “tolerance to 2,4-D treatment” value was “excellent tolerance”.

B3: MON-HT52: engineered oxygenase protein, amino acid sequence SEQ ID NO:4 (protein)
chain: MHAALSPLSQRFERIAVQPLTGVLGAEITGVDLREPLDDSTWNEILDAFHTYQVIYFPGQAITNEQQIAFSRRFGPVDPVPLLKSIEGYPEVQMIRREANESGRVIGDDWHTDSTFLDAPPAAVVMRAIDVPEHGGDTGFLSMYTAYDALSDGLKKLISGLNVVHSATRVFGSLYQAQNRRFSNTSVKVMDVDAGDRETVHPLVVTHPGSGRKGLYVNQVYCQRIEGMSEKESEPLLSFLFAHATKPEFTCRVRWKKDQVLVWDNLCTMHYAINDYHGQTRILHRTTVGGVRPAR
Usually Km stands for the concentration of substrate that gives half-maximal velocity. As to B3, in data set [2], the “Replicate 1 quizalofop-P activity” value came to 92.17, the “Replicate 2 quizalofop-P activity” value was 54.46, the “Replicate 3 quizalofop-P activity” value is 89.75 and the “Average quizalofop-P activity” value is reported as 78.79. Also, the Km in data set [3] (read-out: Km Fenoxaprop) worked out at 490 µM. For the same molecule, the Michaelis constant (Km) in data set [3] (read-out: Km Fluazifop) was 14 µM. Moreover, the Km in data set [3] (read-out: Km Haloxyfop) came out at 280 µM. Also, the Km in data set [3] (read-out: Km Quizalofop-P) came to 420 µM. In data set [3], the “Vmax Fenoxaprop” value is listed as 420, the “Vmax Fluazifop” value amounted to 43, the “Vmax Haloxyfop” value came to 45 and the “Vmax Quizalofop-P” value turned out to be 39.

B4: MON-HT53: engineered oxygenase protein, amino acid sequence SEQ ID NO:7 (protein)
chain: B3 chain with D38S, Q67H, T112S
For B4, in data set [2], the “Replicate 1 quizalofop-P activity” value worked out at 105.34, the “Replicate 2 quizalofop-P activity” value is 105.31, the “Replicate 3 quizalofop-P activity” value is on record as 106.13 and the “Average quizalofop-P activity” value was 105.60. Besides, the Michaelis-Menten constant (Km) in data set [3] (read-out: Km Fenoxaprop) worked out at 1100 µM. In data set [3] (read-out: Km Fluazifop), the Km was 1 µM. Also, the Km in data set [3] (read-out: Km Haloxyfop) worked out at 290 µM. The Km in data set [3] (read-out: Km Quizalofop-P) was 690 µM. Also, in data set [3], the “Vmax Fenoxaprop” value was 640, the “Vmax Fluazifop” value amounted to 40, the “Vmax Haloxyfop” value is 64 and the “Vmax Quizalofop-P” value is 95.

B5: MON-HT54: engineered oxygenase protein, amino acid sequence SEQ ID NO:9 (protein)
chain: B3 chain with Q67H, I106L, D193A, A194D, L261V
Regarding B5, in data set [2], the “Replicate 1 quizalofop-P activity” value is 131.85, the “Replicate 2 quizalofop-P activity” value is given as 149.77, the “Replicate 3 quizalofop-P activity” value is 130.56 and the “Average quizalofop-P activity” value was found to be 137.39. Moreover, the Km in data set [3] (read-out: Km Fenoxaprop) is 2100 µM. Besides, in data set [3] (read-out: Km Haloxyfop), the Km came out at 380 µM. Besides, the Michaelis-Menten constant (Km) in data set [3] (read-out: Km Quizalofop-P) was 560 µM. In data set [3], the “Vmax Fenoxaprop” value worked out at 630, the “Vmax Haloxyfop” value came out at 40 and the “Vmax Quizalofop-P” value was 32.
